Data from paper PMC7145629.
Read-outs that look alike come from different tables or passages of the source.

Key:
Assay in all cases: EMSA
[1] = target: T1, DNMT1 (BAH1-BAH2-MTase fragment) (human, UniProt P26358 728-1600)
[2] = target: T1, DNMT1 (BAH1-BAH2-MTase fragment); remark: listed apart in the source
DNMT3A;DNMT3L = DNMT3A;DNMT3L (human;human, UniProt Q9Y6K1;Q9UJW3 628-912;178-386, |)
DNMT3B;DNMT3L = DNMT3B;DNMT3L (human;human, UniProt Q9UBC3;Q9UJW3 562-853;178-386, |)
[3] = target: T1, DNMT1 (BAH1-BAH2-MTase fragment); remark: listed apart in the source
[4] = target: T1, DNMT1 (BAH1-BAH2-MTase fragment); remark: listed apart in the source
[5] = target: T1, DNMT1 (BAH1-BAH2-MTase fragment); remark: listed apart in the source

T1 sequence (P26358 728-1600): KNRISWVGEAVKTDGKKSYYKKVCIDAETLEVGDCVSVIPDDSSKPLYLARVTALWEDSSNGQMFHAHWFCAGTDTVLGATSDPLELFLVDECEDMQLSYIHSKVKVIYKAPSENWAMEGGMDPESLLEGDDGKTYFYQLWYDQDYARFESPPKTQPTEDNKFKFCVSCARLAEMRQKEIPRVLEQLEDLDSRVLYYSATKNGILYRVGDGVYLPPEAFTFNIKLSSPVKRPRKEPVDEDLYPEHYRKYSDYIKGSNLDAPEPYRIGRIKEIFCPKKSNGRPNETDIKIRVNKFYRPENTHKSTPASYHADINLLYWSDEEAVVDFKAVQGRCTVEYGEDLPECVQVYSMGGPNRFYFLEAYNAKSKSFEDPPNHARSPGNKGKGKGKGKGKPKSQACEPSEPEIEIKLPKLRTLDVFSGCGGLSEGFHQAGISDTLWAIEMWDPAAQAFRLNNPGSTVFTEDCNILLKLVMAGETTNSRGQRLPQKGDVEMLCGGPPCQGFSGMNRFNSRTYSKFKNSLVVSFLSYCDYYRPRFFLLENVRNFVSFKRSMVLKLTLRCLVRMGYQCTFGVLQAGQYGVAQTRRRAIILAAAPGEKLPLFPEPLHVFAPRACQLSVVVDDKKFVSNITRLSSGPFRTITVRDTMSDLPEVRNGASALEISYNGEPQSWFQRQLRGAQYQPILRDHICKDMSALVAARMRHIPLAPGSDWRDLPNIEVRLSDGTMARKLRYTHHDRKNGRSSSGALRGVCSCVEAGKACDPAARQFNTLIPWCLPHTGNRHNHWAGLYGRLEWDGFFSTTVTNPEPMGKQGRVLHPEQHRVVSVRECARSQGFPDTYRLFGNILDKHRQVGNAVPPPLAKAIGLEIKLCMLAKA
DNMT3B;DNMT3L, sequence (Q9UJW3 178-386, chain 2 of 2, other chains not shown): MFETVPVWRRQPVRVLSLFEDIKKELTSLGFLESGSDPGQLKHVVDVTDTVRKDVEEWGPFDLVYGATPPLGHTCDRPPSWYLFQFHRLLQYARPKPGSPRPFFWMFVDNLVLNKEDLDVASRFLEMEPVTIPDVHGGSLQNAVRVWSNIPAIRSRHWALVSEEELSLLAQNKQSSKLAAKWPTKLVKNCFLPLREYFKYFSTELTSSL
DNMT3A;DNMT3L, sequence (Q9Y6K1 628-912, chain 1 of 2): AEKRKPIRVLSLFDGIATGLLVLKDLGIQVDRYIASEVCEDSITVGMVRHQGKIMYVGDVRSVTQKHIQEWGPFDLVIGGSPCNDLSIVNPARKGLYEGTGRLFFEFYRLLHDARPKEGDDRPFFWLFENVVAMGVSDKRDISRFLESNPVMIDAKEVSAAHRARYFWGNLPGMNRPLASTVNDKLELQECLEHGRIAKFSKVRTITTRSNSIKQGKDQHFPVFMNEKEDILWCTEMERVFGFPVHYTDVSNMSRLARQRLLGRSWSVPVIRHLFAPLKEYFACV
DNMT3A;DNMT3L, sequence (Q9UJW3 178-386, chain 2 of 2): as the sequence (Q9UJW3 178-386, chain 2 of 2, other chains not shown) above

Binder: ATAGAAGTGGGGGTGAGTCCACTTCTATG (ssDNA) [Steml]
- binding result [1]: binds

Binder: CGTAGATGTGCTGACATCTACGG (ssDNA) [Modified ssDNA #6]
- binding result [2]: no binding

Binder: CGTCAGATGTGCGAGTGACATCTCAACGG (ssDNA) [Modified ssDNA #5]
- binding result [2]: no binding

Binder: AGATCTGGGGGTGAGTCCACTTCTG (ssDNA) [Bulge2]
- binding result [1]: binds

Binder: AGAAGTGGGGGTGAGTCCACTTCTG (ssDNA) [Apt. #9]
- binding result (DNMT3A;DNMT3L): no binding
- binding result (DNMT3B;DNMT3L): no binding
- Kd [2]: 770 ± 110 nM

Binder: CCCATGCGTAGGGTCTGATGCCTATGCGTG (ssDNA) [Apt. #10]
- binding result [2]: binds

Binder: CGTAGATGTGCGAGTGACATCTACGG (ssDNA) [Apt. #8]
- binding result [2]: binds

B1: hemiDNA 36-mer (dsDNA)
DNA 1: GACGACGACGACGACGACGACGACGACGACGACGAC
DNA 2: GTCGTCGTCGTCGTCGTCGTCGTCGTCGTCGTCGTC
modifications: 5-methylcytosine at every C of strand 2
- binding signal [3]: ~4 fold weaker than Apt. #9

Binder: CAGATGTGCGAGTGACATCTC (ssDNA) [Modified ssDNA #7]
- binding result [4]: no binding

Binder: CCCGGGACGCGGGUCCGGGACAG (ssRNA) [R2 RNA]
- binding signal [5]: ~4 fold less binding than Apt. #9

Binder: TGCGAGTGACATCTCAACGG (ssDNA) [non-binding ssDNA #12]
- binding result [2]: no binding

Binder: AGATGTGCGAGTGACATCTCAACGGCCTAT (ssDNA) [Apt. #11]
- binding result [2]: binds
